Laboratory results published in article PMC11109247 (Nature Communications, 2024).
“And” between values parts separate entries of the source, which are not always exact repeats. Equal entries are not always repeated.

Tests used:
[1] = biological target: the molecule itself; experiment: SDS-PAGE without reduction and boiling
[2] = biological target: T1, soluble NiVMY G ectodomain used for structural determination (residues 72-602, His tag) (Nipah virus Malaysia (NiVMY), UniProt Q9IH62); experiment: cryo-EM structure; details: both partners purified
T1 construct: source: Expi293F, transient transfection, purified

[3] = biological target: NiVBD G ectodomain (Nipah virus, Bangladesh (GenBank …, UniProt Q4VCP5, strain)); experiment: cell-based or functional assay
[4] = biological target: NiVMY G ectodomain (Nipah virus, Malaysia (GenBank …, UniProt E2II03)); experiment: cell-based or functional assay
[5] = biological target: HeV G ectodomain (Hendra virus (isolate …, UniProt O89343)); experiment: cell-based or functional assay
HeV G ectodomain (Hendra virus, sequence (O89343 71-604): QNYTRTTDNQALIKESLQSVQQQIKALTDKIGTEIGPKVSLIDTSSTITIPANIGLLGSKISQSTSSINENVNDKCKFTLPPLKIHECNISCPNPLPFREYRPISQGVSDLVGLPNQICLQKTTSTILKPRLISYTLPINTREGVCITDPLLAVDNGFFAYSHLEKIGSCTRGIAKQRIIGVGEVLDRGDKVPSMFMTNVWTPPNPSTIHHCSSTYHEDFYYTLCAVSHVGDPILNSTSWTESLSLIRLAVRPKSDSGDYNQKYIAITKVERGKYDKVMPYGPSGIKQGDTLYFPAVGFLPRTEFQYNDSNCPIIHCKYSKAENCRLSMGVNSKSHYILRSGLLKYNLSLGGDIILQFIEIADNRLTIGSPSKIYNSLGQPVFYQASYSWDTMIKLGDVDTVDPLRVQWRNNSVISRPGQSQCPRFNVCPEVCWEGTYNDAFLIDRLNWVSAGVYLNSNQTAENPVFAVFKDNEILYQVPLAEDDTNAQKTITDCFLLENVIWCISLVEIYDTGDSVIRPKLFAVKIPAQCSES

B1: NiVMY G ectodomain (residues 72-602), His-tagged, used for structural determination (domain or fragment)
chain: NYTRSTDNQAVIKDALQGIQQQIKGLADKIGTEIGPKVSLIDTSSTITIPANIGLLGSKISQSTASINENVNEKCKFTLPPLKIHECNISCPNPLPFREYRPQTEGVSNLVGLPNNICLQKTSNQILKPKLISYTLPVVGQSGTCITDPLLAMDEGYFAYSHLERIGSCSRGVSKQRIIGVGEVLDRGDEVPSLFMTNVWTPPNPNTVYHCSAVYNNEFYYVLCAVSTVGDPILNSTYWSGSLMMTRLAVKPKSNGGGYNQHQLALRSIEKGRYDKVMPYGPSGIKQGDTLYFPAVGFLVRTEFKYNDSNCPITKCQYSKPENCRLSMGIRPNSHYILRSGLLKYNLSDGENPKVVFIEISDQRLSIGSPSKIYDSLGQPVFYQASFSWDTMIKFGDVLTVNPLVVNWRNNTVISRPGQSQCPRFNTCPEICWEGVYNDAFLIDRINWISAGVFLDSNQTAENPVFTVFKDNEILYRAQLASEDTNAQKTITNCFLLKNKIWCISLVEIYDTGDNVIRPKLFAVKIPEQCT
Q: B1 was tested. Which “stoichiometry N” value [1] did it give?
A: The value was 4 and 2.

B2: 1E5 Fab (Fab, V domains shown)
VH: QVQLQESGPGVVKPSETLSLTCAVSGGSISDTYRWSWIRQPPGKGLEWIGYIYGSATSTYYNPSLSSRVTISKDMSKNQFSLNLNSVTAADTAVYYCARDYQYYYSGSYPTPHNWFDVWGPGVLVTVSS
VL: DIQMTQSPSSLSASVGDRVTITCRASQGIIDYLSWYQQKPGKAPKLLISTASNLESGVPSRFSGSGSGTEFTLTISSLQPEDFATYSCLQGYTTPYTFGQGTKVEIK
notes: source: Expi293F, transient transfection, purified
Q: Does B2 bind [2]?
A: Result: binds

B3: 1E5 (antibody, V domains shown)
VH: B2 VH
VL: B2 VL
Q: With B3 as the binder, how does the “IC50 of neutralisation of authentic NiV-BD (plaque reduction; Fig. 2o)” value [3] read?
A: The value was 0.0125 µg/mL.

Q: What about the “IC50 of neutralisation of authentic NiV-MY (plaque reduction; Fig. 2o)” value [4] of the same binder?
A: Its value is 0.012 µg/mL.

Q: What about the “IC50 of neutralisation of authentic HeV (plaque reduction; Fig. 2o)” value [5] of the same binder?
A: The value was 0.147 µg/mL.
